From patent US20180319872A1 come the findings set out here.

Experiment [1] has as its target Clostridium difficile toxin B (TcdB) (Clostridium difficile) (UniProt P18177). In words: ELISA on plates coated with 1 ug/ml TcdB (TxB), OD450. On the technique in general: An ELISA detects its analyte on a solid surface through an enzyme-linked reagent.
The target of experiment [2] is Clostridium difficile toxin A (TcdA) (Clostridium difficile) (UniProt P16154). In words: cell-based or functional assay.
For experiment [3] the target is unchanged. In words: ELISA on plates coated with 1 ug/ml TcdA (TxA), OD450.

Chain of Clostridium difficile toxin A (TcdA) (Clostridium difficile) (P16154 whole entry): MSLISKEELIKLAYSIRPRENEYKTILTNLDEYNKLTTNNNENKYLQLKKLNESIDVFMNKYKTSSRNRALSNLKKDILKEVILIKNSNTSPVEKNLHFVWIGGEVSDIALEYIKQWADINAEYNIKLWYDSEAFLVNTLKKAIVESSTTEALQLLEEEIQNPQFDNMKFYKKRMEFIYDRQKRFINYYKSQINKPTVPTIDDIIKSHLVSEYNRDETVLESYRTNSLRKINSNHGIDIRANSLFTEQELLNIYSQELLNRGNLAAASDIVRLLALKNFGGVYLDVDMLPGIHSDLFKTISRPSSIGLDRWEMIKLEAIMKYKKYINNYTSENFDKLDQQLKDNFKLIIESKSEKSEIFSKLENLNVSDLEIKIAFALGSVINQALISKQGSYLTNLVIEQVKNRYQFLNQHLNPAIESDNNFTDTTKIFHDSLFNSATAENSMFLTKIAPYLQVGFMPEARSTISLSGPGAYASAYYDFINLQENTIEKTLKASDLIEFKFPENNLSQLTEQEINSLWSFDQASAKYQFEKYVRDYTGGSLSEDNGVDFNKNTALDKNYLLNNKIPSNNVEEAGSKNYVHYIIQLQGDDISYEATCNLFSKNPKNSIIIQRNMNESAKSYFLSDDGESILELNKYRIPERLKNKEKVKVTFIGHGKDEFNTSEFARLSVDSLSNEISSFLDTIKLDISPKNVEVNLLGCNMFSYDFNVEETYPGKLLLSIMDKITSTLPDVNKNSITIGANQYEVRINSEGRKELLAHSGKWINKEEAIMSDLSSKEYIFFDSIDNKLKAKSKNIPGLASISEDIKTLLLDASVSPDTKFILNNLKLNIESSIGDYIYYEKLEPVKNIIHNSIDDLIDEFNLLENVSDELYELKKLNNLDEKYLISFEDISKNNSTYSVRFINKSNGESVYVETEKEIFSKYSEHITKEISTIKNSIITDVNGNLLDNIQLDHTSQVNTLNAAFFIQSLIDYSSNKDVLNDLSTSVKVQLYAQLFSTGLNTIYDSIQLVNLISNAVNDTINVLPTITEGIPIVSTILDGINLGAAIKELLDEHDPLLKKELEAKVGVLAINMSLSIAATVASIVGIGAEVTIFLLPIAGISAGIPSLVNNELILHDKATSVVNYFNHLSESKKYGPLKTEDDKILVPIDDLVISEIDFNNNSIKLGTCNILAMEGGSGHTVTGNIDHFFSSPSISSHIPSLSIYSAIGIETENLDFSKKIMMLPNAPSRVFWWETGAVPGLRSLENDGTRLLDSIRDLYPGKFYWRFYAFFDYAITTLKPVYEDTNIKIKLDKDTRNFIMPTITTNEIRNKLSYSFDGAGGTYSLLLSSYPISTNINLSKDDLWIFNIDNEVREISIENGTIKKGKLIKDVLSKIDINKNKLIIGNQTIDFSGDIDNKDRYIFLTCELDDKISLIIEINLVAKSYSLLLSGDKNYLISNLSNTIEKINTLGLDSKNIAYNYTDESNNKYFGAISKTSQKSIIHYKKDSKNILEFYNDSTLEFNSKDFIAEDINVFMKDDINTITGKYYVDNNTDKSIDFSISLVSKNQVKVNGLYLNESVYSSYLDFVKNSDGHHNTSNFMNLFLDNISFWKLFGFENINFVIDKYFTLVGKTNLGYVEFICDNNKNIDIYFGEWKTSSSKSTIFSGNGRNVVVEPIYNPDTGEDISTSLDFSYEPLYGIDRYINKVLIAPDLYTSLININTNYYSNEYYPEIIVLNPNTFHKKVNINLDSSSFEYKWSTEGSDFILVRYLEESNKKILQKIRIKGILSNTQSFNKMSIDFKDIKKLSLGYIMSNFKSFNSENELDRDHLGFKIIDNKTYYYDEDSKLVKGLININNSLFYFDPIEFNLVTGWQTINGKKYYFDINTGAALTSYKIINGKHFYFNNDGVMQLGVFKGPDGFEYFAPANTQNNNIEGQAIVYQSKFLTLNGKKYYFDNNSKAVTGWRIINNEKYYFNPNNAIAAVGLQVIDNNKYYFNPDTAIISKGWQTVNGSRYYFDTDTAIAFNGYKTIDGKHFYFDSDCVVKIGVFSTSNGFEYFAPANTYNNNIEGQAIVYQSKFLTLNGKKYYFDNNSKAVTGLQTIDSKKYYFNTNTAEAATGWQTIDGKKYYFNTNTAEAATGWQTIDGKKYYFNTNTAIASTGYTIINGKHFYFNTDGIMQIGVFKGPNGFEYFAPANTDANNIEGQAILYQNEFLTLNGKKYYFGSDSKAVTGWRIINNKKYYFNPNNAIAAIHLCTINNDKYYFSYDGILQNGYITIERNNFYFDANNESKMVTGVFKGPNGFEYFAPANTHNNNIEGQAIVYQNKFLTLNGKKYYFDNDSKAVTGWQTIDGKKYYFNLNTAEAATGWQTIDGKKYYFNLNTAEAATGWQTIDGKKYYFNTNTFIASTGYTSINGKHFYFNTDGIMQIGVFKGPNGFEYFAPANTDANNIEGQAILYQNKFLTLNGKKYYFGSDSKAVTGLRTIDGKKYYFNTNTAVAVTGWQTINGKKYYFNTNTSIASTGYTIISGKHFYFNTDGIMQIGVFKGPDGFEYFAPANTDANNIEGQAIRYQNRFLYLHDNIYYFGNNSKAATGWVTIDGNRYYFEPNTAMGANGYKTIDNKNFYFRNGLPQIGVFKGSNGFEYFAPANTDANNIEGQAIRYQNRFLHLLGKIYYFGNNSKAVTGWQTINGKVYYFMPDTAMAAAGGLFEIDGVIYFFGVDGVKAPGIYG
Chain of Clostridium difficile toxin B (TcdB) (Clostridium difficile) (P18177 2-2366 limits assumed): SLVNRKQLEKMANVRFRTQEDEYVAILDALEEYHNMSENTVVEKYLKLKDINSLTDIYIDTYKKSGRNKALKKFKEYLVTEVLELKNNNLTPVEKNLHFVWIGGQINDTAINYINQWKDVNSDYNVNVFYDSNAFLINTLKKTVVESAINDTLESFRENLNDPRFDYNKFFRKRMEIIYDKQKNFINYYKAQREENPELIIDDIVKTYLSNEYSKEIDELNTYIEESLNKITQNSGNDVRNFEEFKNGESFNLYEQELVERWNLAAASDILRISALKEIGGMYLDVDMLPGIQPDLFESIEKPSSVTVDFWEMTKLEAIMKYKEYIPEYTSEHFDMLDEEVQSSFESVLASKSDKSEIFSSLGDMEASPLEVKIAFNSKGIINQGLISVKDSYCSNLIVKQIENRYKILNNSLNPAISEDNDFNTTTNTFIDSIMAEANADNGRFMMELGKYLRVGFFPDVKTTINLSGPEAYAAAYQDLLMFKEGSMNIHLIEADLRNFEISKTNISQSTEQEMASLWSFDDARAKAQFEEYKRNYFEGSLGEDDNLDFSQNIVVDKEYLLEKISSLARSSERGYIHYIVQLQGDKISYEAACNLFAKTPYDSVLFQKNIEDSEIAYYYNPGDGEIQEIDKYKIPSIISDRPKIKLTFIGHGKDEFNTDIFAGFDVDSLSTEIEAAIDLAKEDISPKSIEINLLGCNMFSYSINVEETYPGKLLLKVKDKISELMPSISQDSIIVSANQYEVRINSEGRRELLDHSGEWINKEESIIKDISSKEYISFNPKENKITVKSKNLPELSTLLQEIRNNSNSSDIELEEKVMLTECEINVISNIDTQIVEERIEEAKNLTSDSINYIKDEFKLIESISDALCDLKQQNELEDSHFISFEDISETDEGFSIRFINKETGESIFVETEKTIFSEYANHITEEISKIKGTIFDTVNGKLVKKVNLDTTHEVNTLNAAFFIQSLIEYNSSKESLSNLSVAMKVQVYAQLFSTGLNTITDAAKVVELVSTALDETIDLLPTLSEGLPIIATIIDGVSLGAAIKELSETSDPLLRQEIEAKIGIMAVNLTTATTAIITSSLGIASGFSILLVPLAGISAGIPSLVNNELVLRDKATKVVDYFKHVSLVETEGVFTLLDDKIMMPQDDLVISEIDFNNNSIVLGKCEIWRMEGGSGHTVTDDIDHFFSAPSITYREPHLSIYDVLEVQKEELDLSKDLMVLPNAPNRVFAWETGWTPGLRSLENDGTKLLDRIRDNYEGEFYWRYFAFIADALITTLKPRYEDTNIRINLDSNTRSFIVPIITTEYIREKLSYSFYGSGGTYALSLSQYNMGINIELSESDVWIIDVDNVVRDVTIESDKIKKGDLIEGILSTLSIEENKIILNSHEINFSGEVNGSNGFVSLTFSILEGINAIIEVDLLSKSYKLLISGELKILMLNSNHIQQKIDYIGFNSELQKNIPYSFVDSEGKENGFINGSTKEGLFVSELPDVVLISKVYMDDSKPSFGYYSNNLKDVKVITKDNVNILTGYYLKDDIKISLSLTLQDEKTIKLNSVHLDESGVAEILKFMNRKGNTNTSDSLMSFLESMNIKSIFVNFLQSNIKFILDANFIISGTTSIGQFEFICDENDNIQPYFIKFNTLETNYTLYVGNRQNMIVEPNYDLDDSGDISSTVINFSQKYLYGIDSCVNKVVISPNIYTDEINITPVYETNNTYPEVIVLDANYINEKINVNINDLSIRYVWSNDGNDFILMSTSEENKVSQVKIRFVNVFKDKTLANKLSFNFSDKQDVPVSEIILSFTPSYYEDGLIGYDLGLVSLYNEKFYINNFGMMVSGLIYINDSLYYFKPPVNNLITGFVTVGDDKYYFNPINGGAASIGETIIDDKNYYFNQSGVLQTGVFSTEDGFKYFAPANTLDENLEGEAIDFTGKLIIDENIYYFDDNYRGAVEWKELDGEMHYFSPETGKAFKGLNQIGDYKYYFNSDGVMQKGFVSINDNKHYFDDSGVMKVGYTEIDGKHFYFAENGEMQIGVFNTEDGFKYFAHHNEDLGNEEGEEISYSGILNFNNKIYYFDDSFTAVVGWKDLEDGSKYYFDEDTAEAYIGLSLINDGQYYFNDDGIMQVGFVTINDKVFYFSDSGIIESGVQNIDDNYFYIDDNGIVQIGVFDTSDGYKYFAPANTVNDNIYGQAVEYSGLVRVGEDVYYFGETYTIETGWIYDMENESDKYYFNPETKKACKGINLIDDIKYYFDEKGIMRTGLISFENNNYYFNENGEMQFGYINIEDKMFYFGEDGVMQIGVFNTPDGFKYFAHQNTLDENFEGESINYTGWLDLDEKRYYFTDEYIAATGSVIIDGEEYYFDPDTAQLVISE

Usually EC50 (read off the curve) stands for the concentration giving half of the maximal effect. Merc Ab (antibody): the concentration for a half-maximal effect (EC50 (read off the curve)) in experiment [1] stood at 10 ng/mL.

In experiment [2], “Merck anti-TcdA human monoclonal antibody (actoxumab)” yielded a minimal dose protecting Vero cells from TcdA-induced cell rounding (5 ng/ml TcdA) of more than 10 nM. Besides, in experiment [3], the EC50 (read off the curve) is 2 ng/mL.
